In patent US5670340:

What was measured:
[1] = biological target: fusion protein encoded by pG97S4DhCT(G)R4 (β-gal97S4D - linker R4 - hCT(G)) (Escherichia coli; human) [β-galactosidase: P00722]
[2] = biological target: fusion protein encoded by pG97S4DhCT(G)R5 (β-gal97S4D - linker R5 - hCT(G)) (Escherichia coli; human) [β-galactosidase: P00722]
[3] = biological target: β-gal97S4DhCNP-22R5-2 fusion protein (Escherichia coli; human) [β-galactosidase: P00722]
[4] = biological target: β-gal97S4DhCNP-22R3-2 fusion protein (Escherichia coli; human) [β-galactosidase: P00722]
[5] = biological target: β-gal97S4DhCNP-22R5-3 fusion protein (Escherichia coli; human) [β-galactosidase: P00722]

Substance: V8 protease (from UniProt P0C1U8) (enzyme)
- cleavage efficiency (hCT(G) released, HPLC) [1]: 97%
- cleavage efficiency (hCT(G) released, HPLC) [2]: 7%
- release efficiency of human CNP-22 (HPLC) [3]: 95%
- release efficiency of human CNP-22 (HPLC) [4]: 99%
- release efficiency of human CNP-22 (HPLC) [5]: 92%
